Literature values as cited in patent US5998408A, “Triterpene derivatives with immunosuppressant activity” (Merck & Co., Inc., priority 1997, dated 1999).

Molecular target: T1, Kv 1.3 channels (CHO cells transfected with Kv 1.3 channels) (Homo sapiens, UniProt P22001)
T1 construct: expressed in transfected cells; host or cells: CHO cells
Conditions: stated property of the reference blocker used to set the efflux window

T1 sequence (P22001 whole entry): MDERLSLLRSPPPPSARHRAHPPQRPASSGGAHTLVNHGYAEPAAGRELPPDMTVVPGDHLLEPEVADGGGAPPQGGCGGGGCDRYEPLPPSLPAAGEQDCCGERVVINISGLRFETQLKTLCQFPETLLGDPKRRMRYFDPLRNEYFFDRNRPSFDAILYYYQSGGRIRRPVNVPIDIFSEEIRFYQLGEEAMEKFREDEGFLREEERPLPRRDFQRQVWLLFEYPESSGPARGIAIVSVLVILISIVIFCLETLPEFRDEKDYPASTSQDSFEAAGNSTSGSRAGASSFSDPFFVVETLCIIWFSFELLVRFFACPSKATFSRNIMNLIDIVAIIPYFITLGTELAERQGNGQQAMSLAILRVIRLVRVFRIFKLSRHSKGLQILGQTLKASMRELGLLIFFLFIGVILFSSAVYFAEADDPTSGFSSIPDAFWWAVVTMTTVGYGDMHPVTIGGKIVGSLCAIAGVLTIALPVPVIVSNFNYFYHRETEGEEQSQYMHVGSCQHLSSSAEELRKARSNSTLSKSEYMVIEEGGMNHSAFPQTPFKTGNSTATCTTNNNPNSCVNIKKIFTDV

In the case of “margatoxin (TIINVKCTSPKQCLPPCKAQFGQSAGAKCMNGKCKCYPH; UniProt P40755 1-39, looked up)”, the IC50 is given as 0.1 nM.
